Results reported in publication doi:10.1101/2022.02.24.481826v2.

Tests used:
[1] = test system: O=c1[nH]cnc2c1ncn2[C@H]1C[C@H](O)[C@@H](COP(=O)(O)OP(=O)(O)OP(=O)(O)O)O1; assay: EnzChek pyrophosphate release assay, Michaelis-Menten fit; format: biochemical, Arabidopsis thaliana; settings: dITP to dIMP
[2] = test system: O=P(O)(O)OP(=O)(O)OP(=O)(O)OC[C@H]1O[C@@H](n2cnc3c(O)ncnc32)[C@H](O)[C@@H]1O; assay: as above; format: biochemical, Arabidopsis thaliana; settings: ITP to IMP

Q: How did the Km [1] turn out when ITPA (Arabidopsis thaliana) was run?
A: 1.7 ± 0.3 µM

Q: And the kcat [1]?
A: 1.5 ± 0.17 s⁻¹

Q: And the Km [2]?
A: 7.1 ± 1.2 µM

Q: And the kcat [2]?
A: 1.9 ± 0.25 s⁻¹
